Residue numbers refer to the chain shown, from its start. Each block holds one binder with its values, some of them ahead of it.
Key:
[1] = target: T1, recombinant human proprotein convertase subtilisin/kexin 9 (hPCSK9), his-tagged (Homo sapiens, UniProt Q8NBP7); test: SPR; hPCSK9 (10 μg/mL in 10 mM sodium acetate pH 4.0) on flow cell 2 of a CM5 chip at 790 RU, flow cell 1 blank; VHH-based proteins injected in two-fold dilutions (five or three points); 25 °C, Biacore T200; binding 120 s, dissociation 300 s or 350 s; regeneration glycine pH 2.3; settings: both partners purified
T1 construct: human PCSK9, recombinant, his-tagged (Sinobiological); No catalogue number is printed; also called human PCSK9; source: bought: Sinobiological, China

[2] = target: T1, recombinant human proprotein convertase …; test: as above; settings: both partners purified; remark: listed apart in the source

T1 sequence (Q8NBP7 153-692): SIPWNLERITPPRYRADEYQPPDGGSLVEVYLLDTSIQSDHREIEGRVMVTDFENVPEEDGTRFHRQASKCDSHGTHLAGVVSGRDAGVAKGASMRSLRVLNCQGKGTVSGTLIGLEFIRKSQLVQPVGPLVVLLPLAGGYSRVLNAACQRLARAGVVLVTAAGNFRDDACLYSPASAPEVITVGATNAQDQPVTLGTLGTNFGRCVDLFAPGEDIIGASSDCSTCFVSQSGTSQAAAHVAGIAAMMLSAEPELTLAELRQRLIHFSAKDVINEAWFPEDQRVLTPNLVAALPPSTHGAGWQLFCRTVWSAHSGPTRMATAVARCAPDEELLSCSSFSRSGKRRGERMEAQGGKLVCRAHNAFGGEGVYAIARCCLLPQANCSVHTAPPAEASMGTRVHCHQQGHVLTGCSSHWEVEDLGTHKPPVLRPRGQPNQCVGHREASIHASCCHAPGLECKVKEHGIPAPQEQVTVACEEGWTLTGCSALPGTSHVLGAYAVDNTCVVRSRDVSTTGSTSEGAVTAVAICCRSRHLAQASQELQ

B1: VHH-B11 (monovalent camelid nanobody against hPCSK9) (VHH)
VHH: QVQLQESGGGSVQAGGSLRLSCTVSGYTYSSNCMGWFRQAPGKEHEGVASIYIGGGSTYYADSVKGRFTISQDNAKNTVYLQMNSLKPEDTAMYYCAVGCQGLVDFGYWDQGTQVTVSS
notes: VHH-B11, llama nanobody; Also expressed in E. coli and HEK293F; also called VHH-B11 Ab; wild type VHH-B11
Kd [1]: ~4.4 nM

B2: VHH-Z3 (VHH-B11 humanized mutant) (VHH)
VHH: B1 VHH with Q1E, Q5L, S11L, A14P, T23A, V24A, V79L, K87R, P88A, M93V
notes: as the chain of m2, mutated at several of the 17 hotspots; has 54Ala in FR2 and 83Ala in FR3; source: P. pastoris X33, secreted, purified
binding result [2]: binds

B3: VHH-Z1 (VHH-B11 humanized mutant) (VHH)
VHH: EVQLLESGGGLVQPGGSLRLSCTVSGYTYSSNCMGWFRQAPGKEHEGVSSIYIGGGSTYYADSVKGRFTISRDNSKNTLYLQMNSLRAEDTAVYYCAVGCQGLVDFGYWDQGTQVTVSS
notes: as the chain of m2, mutated at several of the 17 hotspots; has 80Pro in FR3; source: P. pastoris X33, secreted, purified
binding result [2]: binds

The next lines start with the values.

Kd [2]: 39.7 nM
B4: humanized VHH-B11 (Hu-B11), mutated at all 17 hotspots (VHH)
VHH: B3 VHH with T23A, V24A, F37V, E44G, H45L, G47W
notes: as the chain of m2 with 17 humanising mutations in FR1-3; source: P. pastoris X33, secreted, purified

binding result [2]: binds
B5: VHH-Z5 (VHH-B11 humanized mutant) (VHH)
VHH: B3 VHH with T23A, V24A, R72Q, L79V
notes: as the chain of m2, mutated at several of the 17 hotspots; has 87Val in FR3; source: P. pastoris X33, secreted, purified
